Measurements taken from patent US20240261333A1 (published 2024).

T1: SRP14 (human, UniProt P37108 2-136)
T1 construct: Identified by mass spectrometry in the co-IP; also called NP_003125.3
T1 sequence (looked up): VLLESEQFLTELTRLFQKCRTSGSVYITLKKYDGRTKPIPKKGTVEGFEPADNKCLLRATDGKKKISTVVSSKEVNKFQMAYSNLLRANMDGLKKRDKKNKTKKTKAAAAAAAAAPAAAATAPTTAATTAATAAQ

T2: ATAD3A (human, UniProt Q9NVI7 2-586)
T2 construct: also called NP_001164006.1 (+2)
T2 sequence (looked up): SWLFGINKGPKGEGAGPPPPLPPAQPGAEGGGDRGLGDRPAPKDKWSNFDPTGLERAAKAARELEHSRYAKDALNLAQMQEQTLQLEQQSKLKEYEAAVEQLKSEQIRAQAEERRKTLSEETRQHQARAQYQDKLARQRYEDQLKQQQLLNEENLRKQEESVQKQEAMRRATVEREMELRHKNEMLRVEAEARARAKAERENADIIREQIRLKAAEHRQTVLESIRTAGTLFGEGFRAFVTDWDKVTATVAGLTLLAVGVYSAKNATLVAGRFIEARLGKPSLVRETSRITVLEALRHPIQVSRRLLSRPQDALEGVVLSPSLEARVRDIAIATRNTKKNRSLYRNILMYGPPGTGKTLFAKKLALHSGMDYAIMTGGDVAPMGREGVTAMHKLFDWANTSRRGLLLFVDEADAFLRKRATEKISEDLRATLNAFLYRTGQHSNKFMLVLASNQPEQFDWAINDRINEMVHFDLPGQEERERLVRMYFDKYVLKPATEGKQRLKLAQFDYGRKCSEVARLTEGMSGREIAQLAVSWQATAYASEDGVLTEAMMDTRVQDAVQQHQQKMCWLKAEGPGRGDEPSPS

T3: UBTF (human, UniProt P17480-2 1-727, limits assumed)
T3 construct: also called NP_001070151.1 (+3)
T3 sequence (looked up): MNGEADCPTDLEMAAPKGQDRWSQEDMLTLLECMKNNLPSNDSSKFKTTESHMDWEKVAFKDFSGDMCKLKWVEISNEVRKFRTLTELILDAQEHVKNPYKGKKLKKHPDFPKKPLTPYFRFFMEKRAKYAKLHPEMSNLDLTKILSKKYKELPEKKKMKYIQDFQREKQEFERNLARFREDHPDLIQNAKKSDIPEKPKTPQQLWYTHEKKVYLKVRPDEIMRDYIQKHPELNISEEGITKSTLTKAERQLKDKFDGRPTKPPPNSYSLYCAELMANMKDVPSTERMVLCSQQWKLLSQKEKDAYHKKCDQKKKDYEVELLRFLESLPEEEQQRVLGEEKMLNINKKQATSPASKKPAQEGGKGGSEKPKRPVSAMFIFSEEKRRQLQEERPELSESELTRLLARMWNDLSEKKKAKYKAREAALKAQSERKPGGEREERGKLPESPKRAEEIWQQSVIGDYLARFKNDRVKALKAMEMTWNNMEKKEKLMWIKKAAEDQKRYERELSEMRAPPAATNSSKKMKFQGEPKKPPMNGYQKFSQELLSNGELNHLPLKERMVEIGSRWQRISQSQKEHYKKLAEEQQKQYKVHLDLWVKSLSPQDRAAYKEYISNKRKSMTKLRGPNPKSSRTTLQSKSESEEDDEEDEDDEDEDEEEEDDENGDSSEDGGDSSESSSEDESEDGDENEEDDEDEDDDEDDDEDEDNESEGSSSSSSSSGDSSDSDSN


What was measured:
SRP14 = molecular target: T1, SRP14; assay: co-IP with mouse anti-FLAG from lysate of cells overexpressing N-FLAG B3GNT2, then mass spectrometry
Protocol: (§1) Cells were plated in 10-cm cell culture dishes and grown to 60-80% confluency. For each condition, two biological replicates were harvested for co-IP. Cells were washed with PBS and 4 mL of lysis buffer (20 mM HEPES, 1% Triton X-100, 150 mM NaCl, 1 mM EDTA, and 10% glycerol) containing protease inhibitor cocktail was added. Cells were scraped and lysate was incubated at 4° C. under rotary agitation for 1 h. Lysate was centrifuged at 14,000×g for 10 min at 4° C. Supernatant was transferred to a new tube and an aliquot was taken as the input. […] For Western blots, 10 μg/mL Chicken Anti-FLAG (Aves labs ET-DY100) and IgY control (R&D Systems AB-101-C) antibodies were biotinylated (Thermo Fisher Scientific 90407) and added to the respective conditions. Lysates with antibodies were incubated at 4° C. under rotary agitation overnight. For each mL of lysate, 50 μL of Pierce Protein A/G Magnetic Beads (Mass spectrometry; Thermo Fisher Scientific 88803) or Pierce Streptavidin Magnetic Beads (Western blot; Thermo Fisher Scientific 88817) was washed twice with lysis buffer. Lysates with antibodies were added to the beads and incubated at 4° C. under rotary agitation for 4 h. Beads were washed with lysis buffer 3 times and resuspended in lysis buffer for storage.
(§2) Magnetic beads were resuspended in 100 mM Tris pH 7.8, reduced, alkylated and digested with trypsin at 37° ° C. overnight. This solution was subjected to solid phase extraction to concentrate the peptides and remove unwanted reagents followed by injection onto a Shimadzu HPLC with fraction collector. Eight fractions were collected and after concentration were injected on a Waters NanoAcquity HPLC equipped with a self-packed Aeris 3 μm C18 analytical column 0.075 mm by 20 cm, (Phenomenex). Peptides were eluted using standard reverse-phase gradients. The effluent from the column was analyzed using a Thermo Orbitrap Elite mass spectrometer (nanospray configuration) operated in a data dependent manner for 54 minutes. The resulting fragmentation spectra were correlated against the known database using Proteome Discover 1.4 (Thermo Fisher Scientific).

TCP1 = molecular target: T4, TCP1 (human, UniProt P17987 1-556); assay: as above
T4 construct: Identified by mass spectrometry in the co-IP; also called NP_110379.2
T4 sequence (P17987 whole entry): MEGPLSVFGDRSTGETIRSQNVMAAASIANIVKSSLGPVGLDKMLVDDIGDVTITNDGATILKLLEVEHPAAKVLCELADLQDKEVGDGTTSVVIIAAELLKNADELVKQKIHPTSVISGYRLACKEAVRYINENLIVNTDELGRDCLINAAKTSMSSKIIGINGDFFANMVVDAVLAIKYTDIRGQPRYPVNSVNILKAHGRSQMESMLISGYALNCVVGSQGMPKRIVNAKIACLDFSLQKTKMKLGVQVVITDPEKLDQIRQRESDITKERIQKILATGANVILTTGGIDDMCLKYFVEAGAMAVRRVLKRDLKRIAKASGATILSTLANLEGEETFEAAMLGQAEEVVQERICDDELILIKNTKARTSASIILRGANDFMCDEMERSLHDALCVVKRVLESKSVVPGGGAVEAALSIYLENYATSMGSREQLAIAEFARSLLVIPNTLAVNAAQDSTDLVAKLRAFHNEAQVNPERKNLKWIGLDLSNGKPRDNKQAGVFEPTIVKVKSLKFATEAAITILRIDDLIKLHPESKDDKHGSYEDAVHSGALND
Protocol: as §1, §2

SUPT16H = molecular target: T5, SUPT16H (human, UniProt Q9Y5B9 2-1047); assay: as above
T5 construct: Identified by mass spectrometry in the co-IP; also called NP_009123.1 (+1)
T5 sequence (Q9Y5B9 2-1047 limits assumed): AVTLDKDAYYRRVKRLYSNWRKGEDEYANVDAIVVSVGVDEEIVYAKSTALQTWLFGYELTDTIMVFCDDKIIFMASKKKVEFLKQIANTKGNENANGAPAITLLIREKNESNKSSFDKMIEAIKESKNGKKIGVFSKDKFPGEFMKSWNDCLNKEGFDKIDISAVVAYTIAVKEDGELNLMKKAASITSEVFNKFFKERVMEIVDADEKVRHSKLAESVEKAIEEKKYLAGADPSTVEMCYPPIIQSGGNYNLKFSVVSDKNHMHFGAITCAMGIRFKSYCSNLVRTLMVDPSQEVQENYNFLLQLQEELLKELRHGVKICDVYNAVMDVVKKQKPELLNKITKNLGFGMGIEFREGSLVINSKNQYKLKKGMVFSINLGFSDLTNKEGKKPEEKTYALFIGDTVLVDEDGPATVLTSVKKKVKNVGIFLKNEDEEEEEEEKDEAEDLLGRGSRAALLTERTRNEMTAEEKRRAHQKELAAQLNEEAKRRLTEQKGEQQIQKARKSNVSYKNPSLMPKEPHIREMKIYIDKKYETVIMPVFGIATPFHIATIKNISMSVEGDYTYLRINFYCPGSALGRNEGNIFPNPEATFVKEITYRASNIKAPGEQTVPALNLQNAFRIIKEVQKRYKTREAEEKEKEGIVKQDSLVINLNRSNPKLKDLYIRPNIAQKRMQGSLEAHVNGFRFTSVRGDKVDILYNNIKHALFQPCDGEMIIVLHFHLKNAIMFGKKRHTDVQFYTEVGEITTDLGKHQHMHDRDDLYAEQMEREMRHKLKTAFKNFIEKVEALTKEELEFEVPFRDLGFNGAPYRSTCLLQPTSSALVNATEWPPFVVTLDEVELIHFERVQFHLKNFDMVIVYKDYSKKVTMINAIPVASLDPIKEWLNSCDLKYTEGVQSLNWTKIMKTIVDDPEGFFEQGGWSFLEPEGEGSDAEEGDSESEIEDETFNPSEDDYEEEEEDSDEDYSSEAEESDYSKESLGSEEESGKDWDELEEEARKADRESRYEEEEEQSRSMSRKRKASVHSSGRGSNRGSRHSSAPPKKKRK
Protocol: as §1, §2

ATAD3A = molecular target: T2, ATAD3A; assay: anti-FLAG co-IP from lysate of N-FLAG B3GNT2 cells, mass spectrometry
UBTF = molecular target: T3, UBTF; assay: as above
ABCD1 = molecular target: T6, ABCD1 (human, UniProt P33897 1-745); assay: as above
T6 construct: also called NP_000024.2
T6 sequence (P33897 whole entry): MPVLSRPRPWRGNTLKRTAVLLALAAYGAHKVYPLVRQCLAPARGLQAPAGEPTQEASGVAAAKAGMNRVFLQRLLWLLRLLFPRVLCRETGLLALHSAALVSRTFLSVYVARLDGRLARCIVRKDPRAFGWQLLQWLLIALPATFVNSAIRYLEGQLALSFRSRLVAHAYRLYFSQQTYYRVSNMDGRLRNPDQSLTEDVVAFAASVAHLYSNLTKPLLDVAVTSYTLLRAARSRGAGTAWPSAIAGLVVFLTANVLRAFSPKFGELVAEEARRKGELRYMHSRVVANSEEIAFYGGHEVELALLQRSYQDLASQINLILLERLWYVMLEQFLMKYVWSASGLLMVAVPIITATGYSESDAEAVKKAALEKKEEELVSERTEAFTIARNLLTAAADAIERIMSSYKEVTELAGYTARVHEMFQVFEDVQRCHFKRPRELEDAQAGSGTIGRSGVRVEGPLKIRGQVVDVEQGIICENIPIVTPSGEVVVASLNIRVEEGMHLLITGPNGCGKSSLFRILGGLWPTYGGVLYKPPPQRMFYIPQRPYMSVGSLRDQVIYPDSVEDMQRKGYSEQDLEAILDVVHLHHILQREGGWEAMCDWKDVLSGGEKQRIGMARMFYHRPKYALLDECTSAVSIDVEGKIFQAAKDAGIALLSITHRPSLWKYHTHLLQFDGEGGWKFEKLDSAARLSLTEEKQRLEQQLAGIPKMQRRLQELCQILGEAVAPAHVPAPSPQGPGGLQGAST

Row | co-IP mass spectrometry count (N-term FLAG) (SRP14) | co-IP mass spectrometry count (N-term FLAG) (TCP1) | co-IP mass spectrometry count (N-term FLAG) (SUPT16H) | co-IP mass spectrometry count (ATAD3A) | co-IP mass spectrometry count (UBTF) | co-IP mass spectrometry count (ABCD1) | Binder
1 | 0 | 0 | 0 | – | – | – | N-terminal FLAG tagged B3GNT2 (enzyme, human, UniProt Q9NY97 1-397, looked up, FLAG-tagged ORF overexpressed in A375 cells; bait of the co-IP with mouse anti-FLAG; also called N-FLAG B3GNT2; N-term FLAG; not shown: N-terminal FLAG tag) MSVGRRRIKLLGILMMANVFIYFIMEVSKSSSQEKNGKGEVIIPKEKFWKISTPPEAYWNREQEKLNRQYNPILSMLTNQTGEAGRLSNISHLNYCEPDLRVTSVVTGFNNLPDRFKDFLLYLRCRNYSLLIDQPDKCAKKPFLLLAIKSLTPHFARRQAIRESWGQESNAGNQTVVRVFLLGQTPPEDNHPDLSDMLKFESEKHQDILMWNYRDTFFNLSLKEVLFLRWVSTSCPDTEFVFKGDDDVFVNTHHILNYLNSLSKTKAKDLFIGDVIHNAGPHRDKKLKYYIPEVVYSGLYPPYAGGGGFLYSGHLALRLYHITDQVHLYPIDDVYTGMCLQKLGLVPEKHKGFRTFDIEEKNKNNICSYVDLMLVHSRKPQEMIDIWSQLQSAHLKC
2 | – | – | – | 0 | 0 | 0 | N-terminal FLAG tagged B3GNT2 (enzyme, human, UniProt Q9NY97 1-397, looked up, Bait of the co-IP; pulled down from cell lysate with mouse anti-FLAG antibody; also called N-FLAG B3GNT2; N-term FLAG; not shown: N-terminal FLAG tag) MSVGRRRIKLLGILMMANVFIYFIMEVSKSSSQEKNGKGEVIIPKEKFWKISTPPEAYWNREQEKLNRQYNPILSMLTNQTGEAGRLSNISHLNYCEPDLRVTSVVTGFNNLPDRFKDFLLYLRCRNYSLLIDQPDKCAKKPFLLLAIKSLTPHFARRQAIRESWGQESNAGNQTVVRVFLLGQTPPEDNHPDLSDMLKFESEKHQDILMWNYRDTFFNLSLKEVLFLRWVSTSCPDTEFVFKGDDDVFVNTHHILNYLNSLSKTKAKDLFIGDVIHNAGPHRDKKLKYYIPEVVYSGLYPPYAGGGGFLYSGHLALRLYHITDQVHLYPIDDVYTGMCLQKLGLVPEKHKGFRTFDIEEKNKNNICSYVDLMLVHSRKPQEMIDIWSQLQSAHLKC
